Results taken from patent publication US20260184814A1, “BROADLY NE[…] INFLUENZA NEURAMINIDASE” (priority 2022, published 2026).
Where “and” joins values, the source holds several entries; their conditions need not be identical. Identical values can stand only once. Like-named read-outs stand apart in the source and are kept apart here.

How the values were obtained:
[1] = biological target: N2; assay: Bio-Layer Interferometry (BLI)
[2] = biological target: N9; assay: Bio-Layer Interferometry (BLI)
[3] = biological target: N1; assay: Bio-Layer Interferometry (BLI)
[4] = biological target: IBV neuraminidase from B/Lee/10/1940 (Ancestral) (Influenza B virus B/Lee/10/1940) (UniProt P03474); assay: flow cytometry, NA transiently expressed on Expi-CHO cells
[5] = biological target: N2 neuraminidase from A/Leningrad/134/17/57 (Influenza A virus A/Leningrad/134/17/57) (UniProt Q67214); assay: as above
[6] = biological target: N6 neuraminidase from A/swine/Ontario/01911/1/99 (Influenza A virus A/swine/Ontario/01911/1/99); assay: as above
[7] = biological target: N2 A/HONG KONG/68 (Influenza A virus); assay: as above
[8] = biological target: N5 A/AQUATIC BIRD/KOREA/CN5/2009 (Influenza A virus); assay: as above
[9] = biological target: N8 A/HARBOR SEAL/NEW …/179629/2011 (Influenza A virus); assay: as above
[10] = biological target: IBV neuraminidase from B/Malaysia/2506/2004 (Victoria) (Influenza B virus B/Malaysia/2506/2004); assay: as above
[11] = biological target: N1 neuraminidase from A/Stockholm/18/2007 (Influenza A virus A/Stockholm/18/2007); assay: as above
[12] = biological target: N2 neuraminidase from A/Washington/01/2007 (Influenza A virus A/Washington/01/2007); assay: as above
[13] = biological target: N3 neuraminidase from A/Canada/rv504/2004 (Influenza A virus A/Canada/rv504/2004); assay: as above
[14] = biological target: N7 neuraminidase from A/Netherlands/078/03 (Influenza A virus A/Netherlands/078/03); assay: as above
[15] = biological target: IBV neuraminidase from B/Yamanashi/166/1998 (Yamagata) (Influenza B virus B/Yamanashi/166/1998); assay: as above
[16] = biological target: B/WISCONSIN/1/2010 (YAMAGATA) (Influenza B virus); assay: as above
[17] = biological target: N9 neuraminidase from A/Anhui/1/2013 (Influenza A virus A/Anhui/1/2013 (H7N9)); assay: as above
[18] = biological target: N4 A/MALLARD DUCK/…/30/2011 (Influenza A virus); assay: as above
[19] = biological target: B/MALAYSIA/3120318925/2013 (YAMAGATA) (Influenza B virus); assay: as above
[20] = biological target: N2; assay: Bio-Layer Interferometry (BLI); printed as kdis
[21] = biological target: N9; assay: Bio-Layer Interferometry (BLI); printed as kdis
[22] = biological target: N1; assay: Bio-Layer Interferometry (BLI); printed as kdis
[23] = biological target: N1 neuraminidase from A/Swine/Jiangsu/J004/2018 (Influenza A virus A/Swine/Jiangsu/J004/2018 (H1N1)); assay: flow cytometry, cells infected with A/Swine/Jiangsu/J004/2018, antibody 10 µg/ml
[24] = biological target: N9 NA (FIGS. 96A-96C); assay: Bio-Layer Interferometry (BLI)
[25] = biological target: B/BRISBANE/60/2008 (VICTORIA) (Influenza B virus); assay: flow cytometry, NA transiently expressed on Expi-CHO cells
[26] = biological target: N1 neuraminidase from A/Swine/Jiangsu/J004/2018 (Influenza A virus A/Swine/Jiangsu/J004/2018 (H1N1)); assay: flow cytometry, cells infected with A/Swine/Jiangsu/J004/2018, antibody 2 µg/ml
[27] = biological target: N2 neuraminidase from A/South Australia/34/2019 (Influenza A virus A/South Australia/34/2019)
[28] = biological target: N2 neuraminidase from A/South Australia/34/2019 (Influenza A virus A/South Australia/34/2019); remark: listed apart in the source
[29] = biological target: NA-9; assay: BLI, antibody loaded on the sensor (Loading Sample ID: FNI9), NA-9 as sample
[30] = biological target: N1 neuraminidase from A/Swine/Jiangsu/J004/2018 (Influenza A virus A/Swine/Jiangsu/J004/2018 (H1N1))
[31] = biological target: N1 neuraminidase from A/Swine/Jiangsu/J004/2018 (Influenza A virus A/Swine/Jiangsu/J004/2018 (H1N1)); assay: flow cytometry, cells infected with A/Swine/Jiangsu/J004/2018, antibody 50 µg/ml
[32] = biological target: N1 neuraminidase from A/Swine/Jiangsu/J004/2018 (Influenza A virus A/Swine/Jiangsu/J004/2018 (H1N1)); remark: listed apart in the source
[33] = biological target: N1 neuraminidase from A/Swine/Jiangsu/J004/2018 (Influenza A virus A/Swine/Jiangsu/J004/2018 (H1N1)); remark: listed apart in the source
[34] = biological target: human FcRn (human) (UniProt P55899); assay: MSD, pH 6 [cont'd]
Chain of human FcRn (human) (P55899 24-297 limits assumed, chain 1 of 2): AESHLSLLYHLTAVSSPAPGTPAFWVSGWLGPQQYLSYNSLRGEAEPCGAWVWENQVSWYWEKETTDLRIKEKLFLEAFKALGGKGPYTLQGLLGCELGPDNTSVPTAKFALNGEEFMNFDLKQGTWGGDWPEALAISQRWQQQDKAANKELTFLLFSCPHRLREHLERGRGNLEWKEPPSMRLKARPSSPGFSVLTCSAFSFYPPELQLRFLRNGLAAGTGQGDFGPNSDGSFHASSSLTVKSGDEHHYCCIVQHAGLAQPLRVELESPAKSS
Chain of human FcRn (human) (chain, as listed by the source limits assumed, chain 2 of 2): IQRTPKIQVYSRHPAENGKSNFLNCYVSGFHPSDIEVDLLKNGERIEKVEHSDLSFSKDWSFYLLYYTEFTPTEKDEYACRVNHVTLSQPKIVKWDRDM

[35] = biological target: human FcγRIIIa (V158 allele) (human) (UniProt P08637)
Chain of human FcγRIIIa (V158 allele) (human) (P08637 17-208 F176V limits assumed): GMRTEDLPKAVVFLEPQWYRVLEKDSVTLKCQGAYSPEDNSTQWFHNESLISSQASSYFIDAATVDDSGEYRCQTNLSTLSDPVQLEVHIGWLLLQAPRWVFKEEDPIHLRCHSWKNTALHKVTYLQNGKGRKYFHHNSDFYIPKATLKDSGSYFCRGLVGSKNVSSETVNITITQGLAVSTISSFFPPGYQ

[36] = biological target: human FcγRIIIa (F158 allele) (human) (UniProt P08637)
Chain of human FcγRIIIa (F158 allele) (human) (P08637 17-208 limits assumed): as the sequence (P08637 17-208 F176V limits assumed) above, with V160F counted along it

[37] = biological target: human FcγRIIa (H131 allele) (human) (UniProt P12318)
Chain of human FcγRIIa (H131 allele) (human) (P12318 34-218 limits assumed): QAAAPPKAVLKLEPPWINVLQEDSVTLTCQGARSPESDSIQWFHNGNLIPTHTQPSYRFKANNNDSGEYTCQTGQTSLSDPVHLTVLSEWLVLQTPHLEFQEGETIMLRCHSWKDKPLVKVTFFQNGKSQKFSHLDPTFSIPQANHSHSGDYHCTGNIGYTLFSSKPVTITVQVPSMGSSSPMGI

[38] = biological target: human FcγRIIb (human) (UniProt P31994)
Chain of human FcγRIIb (human) (P31994 43-217 limits assumed): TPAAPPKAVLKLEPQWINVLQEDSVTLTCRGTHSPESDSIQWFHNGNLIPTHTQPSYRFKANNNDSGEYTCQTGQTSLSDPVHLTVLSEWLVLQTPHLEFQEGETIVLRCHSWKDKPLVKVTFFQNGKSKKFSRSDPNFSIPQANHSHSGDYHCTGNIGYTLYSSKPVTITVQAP

[39] = biological target: human FcγRIIIa (V158 allele) (human) (UniProt P08637); assay: MSD
[40] = biological target: human FcγRIIIa (F158 allele) (human) (UniProt P08637); assay: MSD
[41] = biological target: human FcγRIIa (H131 allele) (human) (UniProt P12318); assay: MSD
[42] = biological target: human C1q (human) (UniProt P02745); assay: MSD
Chain of human C1q (human) (P02745 23-245 limits assumed, chain 1 of 3): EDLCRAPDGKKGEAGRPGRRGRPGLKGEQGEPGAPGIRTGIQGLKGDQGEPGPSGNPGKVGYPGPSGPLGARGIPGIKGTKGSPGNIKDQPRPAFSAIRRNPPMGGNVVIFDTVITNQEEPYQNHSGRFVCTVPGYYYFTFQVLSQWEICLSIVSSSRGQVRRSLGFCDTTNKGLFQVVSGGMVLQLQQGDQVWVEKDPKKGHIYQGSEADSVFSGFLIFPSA
Chain of human C1q (human) (P02746 28-253 limits assumed, chain 2 of 3, further chain): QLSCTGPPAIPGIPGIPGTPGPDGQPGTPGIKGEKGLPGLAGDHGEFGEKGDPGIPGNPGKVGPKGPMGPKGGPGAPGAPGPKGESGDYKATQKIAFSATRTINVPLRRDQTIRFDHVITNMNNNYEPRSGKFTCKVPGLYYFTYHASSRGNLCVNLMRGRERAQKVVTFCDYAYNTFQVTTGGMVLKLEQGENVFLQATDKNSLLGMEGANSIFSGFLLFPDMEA
Chain of human C1q (human) (P02747 29-245 limits assumed, chain 3 of 3, further chain): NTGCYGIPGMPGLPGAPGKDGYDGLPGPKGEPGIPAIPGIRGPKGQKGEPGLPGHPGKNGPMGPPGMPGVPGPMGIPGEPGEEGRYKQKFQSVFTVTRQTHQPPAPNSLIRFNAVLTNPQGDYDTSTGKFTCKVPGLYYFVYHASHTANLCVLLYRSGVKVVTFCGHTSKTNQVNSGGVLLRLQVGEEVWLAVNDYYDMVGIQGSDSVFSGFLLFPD

[43] = biological target: human FcγRIIa (R131 allele) (human) (UniProt P12318); assay: MSD
Chain of human FcγRIIa (R131 allele) (human) (P12318 34-218 H167R limits assumed): as the sequence (P12318 34-218 limits assumed) above, with H134R counted along it

[44] = biological target: human FcRn (human) (UniProt P55899); assay: MSD
[45] = biological target: human FcγRIIb (human) (UniProt P31994); assay: MSD
[46] = biological target: human FcγRIIIb (human) (UniProt O75015); assay: MSD
Chain of human FcγRIIIb (human) (O75015 17-200 limits assumed): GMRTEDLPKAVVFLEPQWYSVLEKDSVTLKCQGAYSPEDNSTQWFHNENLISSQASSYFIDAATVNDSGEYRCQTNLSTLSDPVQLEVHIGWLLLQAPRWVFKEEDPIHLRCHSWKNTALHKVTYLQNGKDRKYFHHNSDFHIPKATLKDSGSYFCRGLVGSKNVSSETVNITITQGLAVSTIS

[47] = biological target: human FcγRIIIa (V158 allele) (human) (UniProt P08637); assay: MSD [cont'd]
[48] = biological target: human FcγRIIIa (F158 allele) (human) (UniProt P08637); assay: MSD [cont'd]
[49] = biological target: human FcγRIIa (H131 allele) (human) (UniProt P12318); assay: MSD [cont'd]
[50] = biological target: human C1q (human) (UniProt P02745); assay: MSD [cont'd]
[51] = biological target: human FcγRIIa (R131 allele) (human) (UniProt P12318); assay: MSD [cont'd]
[52] = biological target: human FcRn (human) (UniProt P55899); assay: MSD [cont'd]
[53] = biological target: human FcγRIIb (human) (UniProt P31994); assay: MSD [cont'd]
[54] = biological target: human FcγRIIIb (human) (UniProt O75015); assay: MSD [cont'd]
[55] = biological target: human FcγRIIa (H131 allele) (human) (UniProt P12318); assay: Table B summary, vs fucosylated wild-type human IgG1
[56] = biological target: human FcγRIIa (R131 allele) (human) (UniProt P12318); assay: as above

For 1G01 (antibody), the Kd [1] was < 0.001 nM, the kon [1] was 40200 M⁻¹ s⁻¹ and the Kd [2] was < 0.001 nM. For the same substance, the kon [2] was 106000 M⁻¹ s⁻¹, the Kd [3] was 0.868 nM and the kon [3] was 55100 M⁻¹ s⁻¹. For the same substance, the lowest concentration at which binding was observed (EC50 scale class) [4] was 10 mg/L, the lowest concentration at which binding was observed (EC50 scale class) [5] was 0.4 mg/L and the lowest concentration at which binding was observed (EC50 scale class) [6] was 0.4 mg/L. It also gave a lowest concentration at which binding was observed (EC50 scale class) [7] of 0.4 mg/L, a lowest concentration at which binding was observed (EC50 scale class) [8] of 2 mg/L and a lowest concentration at which binding was observed (EC50 scale class) [9] of 0.4 mg/L. It also gave a lowest concentration at which binding was observed (EC50 scale class) [10] of 0.4 mg/L, a lowest concentration at which binding was observed (EC50 scale class) [11] of 0.4 mg/L and a lowest concentration at which binding was observed (EC50 scale class) [12] of 0.4 mg/L. It also gave a lowest concentration at which binding was observed (EC50 scale class) [13] of 0.4 mg/L, a lowest concentration at which binding was observed (EC50 scale class) [14] of 0.4 mg/L and a lowest concentration at which binding was observed (EC50 scale class) [15] of 2 mg/L. The lowest concentration at which binding was observed (EC50 scale class) [16] was 2 mg/L, the lowest concentration at which binding was observed (EC50 scale class) [17] was 0.4 mg/L and the lowest concentration at which binding was observed (EC50 scale class) [18] was 0.4 mg/L. The lowest concentration at which binding was observed (EC50 scale class) [19] was 10 mg/L, the koff [20] was < 1e-07 s⁻¹ and the koff [21] was < 1e-07 s⁻¹. It also gave a koff [22] of 4.79e-05 s⁻¹.

For FNI9 (antibody), the % of cells in the Alexa 647-A positive gate [23] was 83.5%, the Kd [1] was < 0.001 nM and the Kd [2] was < 0.001 nM. For the same substance, the Kd [24] was < 0.001 nM, the Kd [3] was 0.0164 nM and the lowest concentration at which binding was observed (EC50 scale class) [6] was 0.4 mg/L. The lowest concentration at which binding was observed (EC50 scale class) [7] was 0.4 mg/L, the lowest concentration at which binding was observed (EC50 scale class) [9] was 50 mg/L and the lowest concentration at which binding was observed (EC50 scale class) [10] was 0.4 mg/L. The lowest concentration at which binding was observed (EC50 scale class) [11] was 0.4 mg/L, the lowest concentration at which binding was observed (EC50 scale class) [13] was 0.4 mg/L and the lowest concentration at which binding was observed (EC50 scale class) [14] was 50 mg/L. For the same substance, the lowest concentration at which binding was observed (EC50 scale class) [15] was 0.4 mg/L, the lowest concentration at which binding was observed (EC50 scale class) [16] was 0.4 mg/L and the lowest concentration at which binding was observed (EC50 scale class) [17] was 0.4 mg/L. The lowest concentration at which binding was observed (EC50 scale class) [25] was 0.4 mg/L, the lowest concentration at which binding was observed (EC50 scale class) [18] was 0.4 mg/L and the lowest concentration at which binding was observed (EC50 scale class) [19] was 0.4 mg/L. For the same substance, the % of cells in the Alexa 647-A positive gate [26] was 82.1%, the % Alexa 647-A+ cells [27] was 66.1% and 71.3% and the % Alexa 647-A+ cells [28] was 57% and 68.8%. For the same substance, the Kd [29] was 0.088 nM, the % of cells in the Alexa 647-A positive gate [30] was 78% and the % of cells in the Alexa 647-A positive gate [31] was 84%. For the same substance, the % Alexa 647-A+ cells [32] was 82.1% and 78% and the % Alexa 647-A+ cells [33] was 84% and 83.5%.

Work on “IgG1 antibody with Fc variant G236A_R292P_Y300L” yielded a fold-change to WT Fc [34] of 0.828 fold, a FcγR reporter signaling, fold-change vs wt [cont'd] [35] of 2.83 fold and a FcγR reporter signaling, fold-change vs wt [cont'd] [36] of 6.15 fold. The FcγR reporter signaling, fold-change vs wt [cont'd] [37] was 1.87 fold, the FcγR reporter signaling, fold-change vs wt [cont'd] [38] was 1.01 fold and the fold-change vs FY1 rIgG1m3 [39] was 2.7 fold. For the same substance, the fold-change vs FY1 rIgG1m3 [40] was 3.7 fold, the fold-change to WT Fc [41] was 14.2 fold and the fold-change vs FY1 rIgG1m3 [41] was 14.2 fold. For the same substance, the fold-change vs FY1 rIgG1m3 [42] was 1.01 fold, the fold-change to WT Fc [43] was 2.71 fold and the fold-change vs FY1 rIgG1m3 [43] was 2.7 fold. The fold-change vs FY1 rIgG1m3 [44] was 0.8 fold, the fold-change to WT Fc [45] was 0.94 fold and the fold-change vs FY1 rIgG1m3 [45] was 0.9 fold. For the same substance, the fold-change vs FY1 rIgG1m3 [46] was 1.03 fold, the fold-change to WT Fc [47] was 2.69 fold and the fold-change vs wt [47] was 2.69 fold. For the same substance, the fold-change to WT Fc [48] was 3.71 fold, the fold-change vs wt [48] was 3.71 fold and the fold-change vs wt [49] was 14.2 fold. It also gave a fold-change to WT Fc [50] of 1.01 fold, a fold-change vs wt [50] of 1.01 fold and a fold-change vs wt [51] of 2.71 fold. The fold-change vs wt [52] was 0.83 fold, the fold-change vs wt [53] was 0.94 fold and the fold-change vs wt [54] was 1.03 fold. It also gave a fold-change in binding vs fucosylated wild-type human IgG1 [55] of 14 fold and a fold-change in binding vs fucosylated wild-type human IgG1 [56] of 2.7 fold.
